Laboratory results from patent publication US20200055930A1 (Pfizer, published 2020).
“And” between values parts separate entries of the source, which are not always exact repeats. Equal entries are not always repeated.

How the values were obtained:
[1] = biological target: T1, Mouse Fc-cynomolgus monkey GDF15 (Mu IgG1Fc_Fxa_Cyno GDF15) (cynomolgus monkey (GDF15 part)); test: SPR BIAcore T200 37C; Fc-GDF15 captured, IgG analyte
T1 construct: Whole fusion entry; also called Murine dimeric IgG1 Fc-cyno GDF-15 with FXa cleavage site
T1 chain: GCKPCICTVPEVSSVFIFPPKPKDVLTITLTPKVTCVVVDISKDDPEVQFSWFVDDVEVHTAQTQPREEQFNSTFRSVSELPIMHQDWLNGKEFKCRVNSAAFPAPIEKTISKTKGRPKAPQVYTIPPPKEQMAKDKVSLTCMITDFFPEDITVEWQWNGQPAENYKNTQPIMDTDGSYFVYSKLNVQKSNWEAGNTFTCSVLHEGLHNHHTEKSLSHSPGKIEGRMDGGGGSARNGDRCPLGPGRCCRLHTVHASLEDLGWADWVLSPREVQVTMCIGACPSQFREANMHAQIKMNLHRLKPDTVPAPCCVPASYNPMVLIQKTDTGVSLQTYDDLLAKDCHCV
Method: (§1) Mouse Fc-human GDF15 (Mu IgG1Fc_Fxa_Hu GDF15; SEQ ID NO:2), Mouse Fc-mouse GDF15 (Mu IgG1Fc_Fxa_Mu GDF15; SEQ ID NO:5) and Mouse Fc-cynomolgus monkey GDF15 (Mu IgG1Fc_Fxa_Cyno GDF15; SEQ ID NO:4) were captured onto three different flow cells of a CM4 sensorchip (catalogue number BR100534, GE Healthcare) surface using the Mouse Antibody Capture Kit (BR100838, GE Healthcare) according to the manufacturer's protocol. The running and sample buffer was 10 mM HEPES pH 7.4, 0.15M NaCl, 3 mM EDTA, 0.05% P-20 (HBS-EP+). The final capture levels of Mu IgG1Fc_Fxa_Hu GDF15, Mu IgG1Fc_Fxa_Mu GDF15 and Mu IgG1Fc_Fxa_Cyno GDF15 were 40 resonance units (RU), 32 RU and 25 RU respectively. Flow cell 1 was used as a reference flow cell. […] The dissociation was monitored for 2.8 hours and the surface was regenerated with 10 mM Glycine pH 1.7. Binding affinities and rate constants were determined for murine and cynomolgus monkey GDF15 by fitting the resulting sensorgram data to a 1:1 Langmuir model in BIAcore T200 Evaluation software version 2.0 (GE Healthcare).
(§2) Additionally, the binding of clone GDF15_001 to cynomolgus monkey and mouse GDF15 was measured using above mentioned BIAcore assay (Table 7).

[2] = biological target: T2, Mouse Fc-human GDF15 (Mu IgG1Fc_Fxa_Hu GDF15) (human (GDF15 part)); test: SPR BIAcore T200 37C; Fc-GDF15 captured, IgG analyte; same run as printed in Table 6 (the 8th table r9)
T2 construct: Whole fusion entry; also called Murine dimeric IgG1 Fc-human GDF-15 with FXa cleavage site; control human GDF15
T2 chain: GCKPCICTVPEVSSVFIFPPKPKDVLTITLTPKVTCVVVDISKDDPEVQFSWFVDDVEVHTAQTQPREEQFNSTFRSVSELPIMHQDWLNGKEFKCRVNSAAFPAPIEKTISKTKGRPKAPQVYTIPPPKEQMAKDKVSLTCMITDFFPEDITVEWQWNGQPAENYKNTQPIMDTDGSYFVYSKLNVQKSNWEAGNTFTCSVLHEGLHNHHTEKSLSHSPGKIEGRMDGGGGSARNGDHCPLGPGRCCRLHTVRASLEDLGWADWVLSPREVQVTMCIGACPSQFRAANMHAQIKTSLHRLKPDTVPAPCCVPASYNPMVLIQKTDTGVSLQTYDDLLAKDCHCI
Method: as §1, §2

[3] = biological target: T2, Mouse Fc-human GDF15 (Mu IgG1Fc_Fxa_Hu …); test: SPR BIAcore T200 37C; Fc-GDF15 captured, IgG analyte
Method: as §1, with “Healthcare). […]” for “Healthcare).”

[4] = biological target: T2, Mouse Fc-human GDF15 (Mu IgG1Fc_Fxa_Hu …); test: SPR BIAcore T200 37C; Fc-GDF15 captured, IgG analyte; same run as printed in Table 6 (the 8th table r8)
Method: as §1, §2

[5] = biological target: T2, Mouse Fc-human GDF15 (Mu IgG1Fc_Fxa_Hu …); test: SPR BIAcore T200 37C; Fc-GDF15 captured, IgG analyte; same run as printed in Table 6 (the 8th table r7)
Method: as §1, §2

B1: GDF15_001 (antibody, human IgG1, kappa, V domains shown)
VH: QVQLVQSGAEVKKPGSSVKVSCKASGYTFSSYNIDWVRQAPGQGLEWMGGINPIFGTAFYNQKFQGRVTITADESTSTAYMELSSLRSEDTAVYYCAREAITTVGAMDHWGQGTLVTVSS
VL: EIVLTQSPATLSLSPGERATLSCRTSQSVHNYLAWYQQKPGQAPRLLIYDASTRADGIPARFSGSGSGTDFTLTISSLEPEDFAVYYCQQFWSWPWTFGQGTKVEIKR
notes: Bivalent IgG1/kappa; also called clone GDF15_001; anti-GDF15_001
**Q.** Which results are given for B1?
**A.** T½ [1]: 14.8 h and 15.5 h and 18.7 h; T½ [2]: 40.3 h; T½ [3]: 40.3 h and 20.9 h and 30.8 h; T½ [4]: 30.8 h; T½ [5]: 20.9 h
